Values quoted from earlier work in PMC10410519.
pKi: −log10 of the molar value.

Target: Growth hormone receptor (Homo sapiens) (UniProt P10912)
Assay: competition

hGH (from UniProt P01241)
pKi: 8.46
